In patent publication US11752086B2, “Topical formulations and methods” (MYOCEPT INC., priority 2017, dated 2023):

Assay: isoelectric point (pI) as stated
Format: physicochemical
Protocol: For the second study this procedure was modified to include a chromatographic enrichment/purification step over a HiTrap SP-Sepharose cation exchange column (GE Healthcare). Both MCPT-201 and alpha cobratoxin are highly positively charged proteins with a pI of 8.2. They are routinely purified on cation exchange resigns such as SP-Sepharose. The sample buffer in the Franz cell receiving chamber was changed to 50 mM MES-NaOH, 20 mM NaCl, 0.1 mM EDTA, pH 6.0 in order to make samples directly compatible with cation exchange chromatography over SP-Sepharose.

Work on alpha cobratoxin yielded a pI of 8.2.
